According to publication PMC9306533 (Journal of Neurochemistry, 2022):
Each block holds one molecule with its values, some of them ahead of it.

Tests used:
[1] = biological target: GRK3 (G protein‐coupled receptor kinase 3) (UniProt P35626); experiment: BRET, CB1R-YFP and GRK3-Rluc8; details: sites S425,S429
[2] = biological target: β‐arrestin2 (UniProt P32121); experiment: BRET, CB1R-YFP and β-arrestin2-Rluc; details: reference: wild type; sites S425,S429
[3] = biological target: CB1R_6A‐YFP (human, UniProt P21554 1-472, serine/threonine residues of 460TMSVSTDTS468 to alanine); experiment: FRET or BRET
[4] = biological target: CB1R‐YFP (wild type) (human, UniProt P21554 1-472); experiment: FRET or BRET
[5] = biological target: CB1R_2D‐YFP (human, UniProt P21554 1-472, S425 mutated into aspartate | S429D); experiment: FRET or BRET
[6] = biological target: CB1R_2A‐YFP (human, UniProt P21554 1-472, S425A | S429A); experiment: FRET or BRET
[7] = biological target: CB1R_6D‐YFP (human, UniProt P21554 1-472, serine/threonine residues of 460TMSVSTDTS468 to aspartic acid); experiment: FRET or BRET
[8] = reference: 460…468 mutant, S425/S429 intact

- other: agonist-promoted mBRET at 5 min [1, 8]: weaker; reference 28.95 ± 2.18
- other: agonist-promoted mBRET at 30 min [1, 8]: stronger; reference 27.11 ± 3.71
Molecule: Cannabinoid receptor 1 (CB1R) (from UniProt P21554) 425AMGDA429_460…468

- other: agonist-promoted mBRET at 5 min [2]: weaker; reference 29.33 ± 1.93
- other: agonist-promoted mBRET at 5 min ([1]; reference: wild type): stronger; reference 23.62 ± 3.54
Molecule: Cannabinoid receptor 1 (CB1R) (from UniProt P21554) CB1R_2A (S425A, S429A)

- other: agonist-promoted mBRET at 5 min [2]: weaker; reference 29.93 ± 1.51
- other: agonist-promoted mBRET at 5 min ([1]; reference: wild type): same; reference 35.54 ± 2.26
Molecule: Cannabinoid receptor 1 (CB1R) (from UniProt P21554) CB1R_2D (S425D, S429D)

- agonist-promoted mBRET at 5 min [3]: 9.88 mBRET
- agonist-promoted mBRET at 30 min [4]: 8.82 mBRET
- agonist-promoted mBRET at 5 min [5]: 31.7 mBRET
- agonist-promoted mBRET at 5 min [6]: 63.6 mBRET
- agonist-promoted mBRET at 5 min [7]: 27.5 mBRET
B1: GRK3‐Rluc8 (enzyme, human, UniProt P35626 1-688, looked up)
chain: MADLEAVLADVSYLMAMEKSKATPAARASKRIVLPEPSIRSVMQKYLAERNEITFDKIFNQKIGFLLFKDFCLNEINEAVPQVKFYEEIKEYEKLDNEEDRLCRSRQIYDAYIMKELLSCSHPFSKQAVEHVQSHLSKKQVTSTLFQPYIEEICESLRGDIFQKFMESDKFTRFCQWKNVELNIHLTMNEFSVHRIIGRGGFGEVYGCRKADTGKMYAMKCLDKKRIKMKQGETLALNERIMLSLVSTGDCPFIVCMTYAFHTPDKLCFILDLMNGGDLHYHLSQHGVFSEKEMRFYATEIILGLEHMHNRFVVYRDLKPANILLDEHGHARISDLGLACDFSKKKPHASVGTHGYMAPEVLQKGTAYDSSADWFSLGCMLFKLLRGHSPFRQHKTKDKHEIDRMTLTVNVELPDTFSPELKSLLEGLLQRDVSKRLGCHGGGSQEVKEHSFFKGVDWQHVYLQKYPPPLIPPRGEVNAADAFDIGSFDEEDTKGIKLLDCDQELYKNFPLVISERWQQEVTETVYEAVNADTDKIEARKRAKNKQLGHEEDYALGKDCIMHGYMLKLGNPFLTQWQRRYFYLFPNRLEWRGEGESRQNLLTMEQILSVEETQIKDKKCILFRIKGGKQFVLQCESDPEFVQWKKELNETFKEAQRLLRRAPKFLNKPRSGTVELPKPSLCHRNSNGL
